Earlier results on 2 substances are cited in article PMC4543363.

Series [1] addresses NF-κB dimer (Homo sapiens) (UniProt P19838).
For the next series, the target named is NF-κB p50 (Homo sapiens) (UniProt P19838).

Regarding IκBα (from UniProt P25963), the Kd (as a rule, the concentration at which binding is half-saturated) in series [1] was < 0.1 nM.
In the case of NF-κB p65 (from UniProt Q04206), the Kd with NF-κB p50 (Homo sapiens) is 100 nM.
